± gives the standard error. For some of these results: Fewer inactive variants are shown than the library holds.
B1: glmS ribozyme (parent)
chain: AUAAAAGCGCCAGAACUACAGAAAUGUAGUUGACGAGGAGGAGGUUUAUCGAAUUUUCGGCGGAUGCCUCCAAA

Experiments:
Conditions in all cases: with glucosamine-6-phosphate
glucosamine-6-phosphate [1] = variants of: B1; experiment: kcat; higher = faster cleavage; RNA array
Method in brief: (§1)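 Using a hybridised Cy3 probe at 37 °C, barcoded ribozyme variants transcribed in situ by E. coli RNA polymerase on sequenced MiSeq chips were monitored across tiles imaged over ~14 h. The flow contained glucosamine-6-phosphate from 40 μM to 10 mM in HEPES/KCl/Mg(OAc)2 buffer. Signals were normalised to baseline and to non-cleaving reference variants before per-tile medians were fit to one- or two-exponential decays to yield kobs. Weighted Michaelis–Menten fits across concentrations gave kcat and KM.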

glucosamine-6-phosphate [2] = variants of: B1; experiment: self-cleavage kobs at 160 uM GlcN6P; higher = faster cleavage; RNA array
Method in brief: as §1

glucosamine-6-phosphate [3] = variants of: B1; experiment: self-cleavage kobs at 2500 uM GlcN6P; higher = faster cleavage; RNA array
Method in brief: as §1

glucosamine-6-phosphate [4] = variants of: B1; experiment: KM; higher = weaker cofactor use; RNA array
Method in brief: as §1

glucosamine-6-phosphate [5] = variants of: B1; experiment: self-cleavage kobs at 640 uM GlcN6P; higher = faster cleavage; RNA array
Method in brief: as §1

glucosamine-6-phosphate [6] = variants of: B1; experiment: self-cleavage kobs at 10000 uM GlcN6P; higher = faster cleavage; RNA array
Method in brief: as §1

glucosamine-6-phosphate [7] = variants of: B1; experiment: self-cleavage kobs at 40 uM GlcN6P; higher = faster cleavage; RNA array
Method in brief: as §1

Row | Variant | kcat (glucosamine-6-phosphate [1]) | self-cleavage kobs at 160 uM GlcN6P (glucosamine-6-phosphate [2]) | self-cleavage kobs at 2500 uM GlcN6P (glucosamine-6-phosphate [3]) | KM (glucosamine-6-phosphate [4]) | self-cleavage kobs at 640 uM GlcN6P (glucosamine-6-phosphate [5]) | self-cleavage kobs at 10000 uM GlcN6P (glucosamine-6-phosphate [6]) | self-cleavage kobs at 40 uM GlcN6P (glucosamine-6-phosphate [7])
1 | A33C U46A | 3.08e-05 ± 7.5e-06 s⁻¹ | < 1e-05 s⁻¹ | 3.48e-05 ± 1.7e-05 s⁻¹ | – | – | – | –
2 | U31G U49G | 0.000191 ± 2.6e-06 s⁻¹ | – | 0.000102 ± 1.4e-05 s⁻¹ | 2140 ± 89 µM | 4.38e-05 ± 1.9e-05 s⁻¹ | 0.000157 ± 1.4e-05 s⁻¹ | –
3 | G37C C70G | 1.47e-05 ± 4.3e-06 s⁻¹ | – | – | – | – | – | –
4 | G37A U49G | 7.59e-05 ± 1.4e-05 s⁻¹ | – | 4.94e-05 ± 1.8e-05 s⁻¹ | – | – | 6.04e-05 ± 1.3e-05 s⁻¹ | –
5 | G32A U54A | 0.00386 ± 0.001 s⁻¹ | 0.000125 ± 2.9e-05 s⁻¹ | 0.00157 ± 0.00026 s⁻¹ | 3520 ± 1300 µM | 0.00067 ± 0.00011 s⁻¹ | 0.00286 ± 0.00045 s⁻¹ | 6.3e-05 ± 1.3e-05 s⁻¹
6 | G32U C68G | 1.3e-05 ± 1.3e-06 s⁻¹ | – | – | – | – | – | –
7 | U31G U49C U54A G63C C68G U69G | 2.53e-05 ± 5.9e-06 s⁻¹ | – | – | – | – | – | < 1e-05 s⁻¹
8 | A36U C50A | < 1e-05 s⁻¹ | < 1e-05 s⁻¹ | – | – | – | – | –
9 | G37A C58A | 1.97e-05 ± 3.4e-06 s⁻¹ | – | – | – | – | – | –
10 | A33G A64G C70A | 5.02e-05 ± 9.3e-06 s⁻¹ | – | – | – | – | – | –
11 | G32C C58G | 8.83e-05 ± 1.4e-05 s⁻¹ | – | 4.79e-05 ± 7.8e-06 s⁻¹ | 2580 ± 1100 µM | – | 6.81e-05 ± 9.4e-06 s⁻¹ | –
12 | A33U C61G | < 1e-05 s⁻¹ | – | – | – | – | < 1e-05 s⁻¹ | < 1e-05 s⁻¹
13 | C34G U47G C58A C68A | 5.47e-05 ± 1.4e-05 s⁻¹ | 6.99e-05 ± 1.7e-05 s⁻¹ | 6.86e-05 ± 2.9e-05 s⁻¹ | – | 6.8e-05 ± 3.3e-05 s⁻¹ | – | –
14 | A33G U69A | 3.15e-05 ± 1.4e-05 s⁻¹ | 4.13e-05 ± 1.5e-05 s⁻¹ | – | – | – | – | –
15 | A36C A64U | 1.13e-05 ± 3.6e-06 s⁻¹ | – | – | – | < 1e-05 s⁻¹ | – | < 1e-05 s⁻¹
16 | G32C U54G | 9.47e-05 ± 8e-06 s⁻¹ | – | 5.12e-05 ± 1.5e-05 s⁻¹ | 2550 ± 810 µM | – | 7.5e-05 ± 8.5e-06 s⁻¹ | –
17 | A36G U54G | < 1e-05 s⁻¹ | – | – | – | – | – | < 1e-05 s⁻¹
18 | A36G C70U | 3.34e-05 ± 3.8e-06 s⁻¹ | – | 3.3e-05 ± 1.3e-05 s⁻¹ | – | – | 2.96e-05 ± 1.1e-05 s⁻¹ | –
19 | A33G C71A | < 1e-05 s⁻¹ | < 1e-05 s⁻¹ | – | – | – | < 1e-05 s⁻¹ | < 1e-05 s⁻¹
20 | G35A G38U | < 1e-05 s⁻¹ | < 1e-05 s⁻¹ | – | – | – | – | –
21 | G35A G38C | < 1e-05 s⁻¹ | – | – | – | < 1e-05 s⁻¹ | – | –
22 | G37A U65A | 0.000179 ± 2.2e-05 s⁻¹ | – | 7.66e-05 ± 1.9e-05 s⁻¹ | 4340 ± 1300 µM | – | 0.000124 ± 1.4e-05 s⁻¹ | –
23 | G37C G38U | < 1e-05 s⁻¹ | – | < 1e-05 s⁻¹ | – | < 1e-05 s⁻¹ | – | < 1e-05 s⁻¹
